Results taken from patent US20040005550A1, “Methods and compositions useful for targeting activated vitronectin receptor alphavbeta3” (The Scripps Research Institute, priority 1998, published 2004).

Columns and labels:
[1] = biological target: T1, human αvβ3 integrin on cells (human), P06756; assay: flow cytometry, AP5-treated αvβ3-CHO cells; 2 mM RGDS against WOW-1 Fab
T1 chain 1: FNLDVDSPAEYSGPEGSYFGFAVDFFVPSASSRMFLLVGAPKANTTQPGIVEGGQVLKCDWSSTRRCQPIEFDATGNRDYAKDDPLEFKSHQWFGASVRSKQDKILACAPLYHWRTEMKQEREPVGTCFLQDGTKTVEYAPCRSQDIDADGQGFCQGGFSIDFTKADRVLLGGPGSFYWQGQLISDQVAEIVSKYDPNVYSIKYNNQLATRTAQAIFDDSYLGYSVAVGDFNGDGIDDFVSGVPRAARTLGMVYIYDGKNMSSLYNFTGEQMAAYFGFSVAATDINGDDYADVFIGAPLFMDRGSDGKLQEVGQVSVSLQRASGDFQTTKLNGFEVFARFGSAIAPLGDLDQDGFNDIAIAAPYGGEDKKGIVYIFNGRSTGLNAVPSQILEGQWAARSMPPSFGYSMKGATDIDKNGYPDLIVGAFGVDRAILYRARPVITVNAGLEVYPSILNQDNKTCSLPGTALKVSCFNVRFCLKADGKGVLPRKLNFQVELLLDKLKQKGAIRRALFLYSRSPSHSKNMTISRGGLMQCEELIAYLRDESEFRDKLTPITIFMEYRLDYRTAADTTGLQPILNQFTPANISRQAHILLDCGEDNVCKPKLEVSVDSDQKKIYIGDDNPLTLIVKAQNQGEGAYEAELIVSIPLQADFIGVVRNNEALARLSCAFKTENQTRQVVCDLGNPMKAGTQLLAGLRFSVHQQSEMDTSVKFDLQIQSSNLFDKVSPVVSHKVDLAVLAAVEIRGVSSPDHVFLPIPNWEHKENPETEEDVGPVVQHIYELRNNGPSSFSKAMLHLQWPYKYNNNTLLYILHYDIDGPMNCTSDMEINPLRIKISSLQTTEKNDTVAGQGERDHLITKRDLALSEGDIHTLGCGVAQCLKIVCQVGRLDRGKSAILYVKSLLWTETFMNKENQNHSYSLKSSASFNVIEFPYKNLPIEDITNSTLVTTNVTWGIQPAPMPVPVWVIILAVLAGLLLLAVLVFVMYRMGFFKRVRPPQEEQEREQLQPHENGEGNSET
T1 chain 2: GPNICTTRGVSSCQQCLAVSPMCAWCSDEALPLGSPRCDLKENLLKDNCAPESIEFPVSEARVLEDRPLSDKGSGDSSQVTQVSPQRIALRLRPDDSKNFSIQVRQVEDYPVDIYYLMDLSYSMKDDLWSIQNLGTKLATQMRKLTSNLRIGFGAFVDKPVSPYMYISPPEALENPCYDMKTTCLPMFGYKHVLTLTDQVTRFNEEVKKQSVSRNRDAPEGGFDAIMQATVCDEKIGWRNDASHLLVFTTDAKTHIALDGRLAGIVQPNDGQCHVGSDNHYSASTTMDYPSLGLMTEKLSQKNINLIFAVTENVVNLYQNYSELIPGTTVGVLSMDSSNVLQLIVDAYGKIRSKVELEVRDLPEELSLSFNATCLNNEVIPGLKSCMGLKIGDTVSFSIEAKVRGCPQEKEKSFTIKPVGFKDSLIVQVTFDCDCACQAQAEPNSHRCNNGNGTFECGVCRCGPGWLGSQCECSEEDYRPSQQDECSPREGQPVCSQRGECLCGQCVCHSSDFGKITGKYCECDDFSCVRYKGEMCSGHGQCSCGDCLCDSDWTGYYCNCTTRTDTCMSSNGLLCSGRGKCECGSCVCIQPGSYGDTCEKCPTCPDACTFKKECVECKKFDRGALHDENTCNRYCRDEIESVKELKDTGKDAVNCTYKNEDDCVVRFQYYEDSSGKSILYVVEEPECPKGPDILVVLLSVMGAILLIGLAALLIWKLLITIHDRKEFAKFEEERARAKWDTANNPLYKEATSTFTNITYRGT

[2] = biological target: T1, human αvβ3 integrin on cells (human), …; assay: flow cytometry, AP5-treated αvβ3-CHO cells; 2 mM RGDS against aPB
[3] = biological target: T2, purified αvβ3 receptors from human placenta (human), P06756; assay: ELISA on purified integrin; 2 mM RGDS against WOW-1 Fab
T2 chain 1: T1 chain 1
T2 chain 2: T1 chain 2

## RGDS (modifications not checked)
[1]
  percent inhibition of WOW-1 Fab binding: > 85%
[2]
  percent inhibition of aPB binding: > 85%
[3]
  percent inhibition of WOW-1 Fab binding: > 95%
